Target: FUS(1-526)[P525L]-NLUC-FLAG (UniProt P35637 P35637:1-526, P525L)
Assay: competition; competitive nanoBRET vs AF594-JB39; reported as KD (50% dissociation of BRET pair); table prints NLUC-HA, text NLUC-FLAG
Conditions: tags: C-terminal NLUC-FLAG; PURExpress
Protocol: Competitive NanoBRET binding assays were performed with unlabeled oligonucleotides JB40, JB41, and JB42. First, the relative amount of purified protein per volume of bead suspension (based on nluc activity) was determined in 2× binding buffer (200 mM potassium acetate, 40 mM Tris pH 8.0, 2 mM EDTA, 0.02% NP-40, 6 μg/mL BSA, and 1:1000 Promega Nano-Glo luciferase substrate) using an eight-point dilution curve over ˜3.5 orders of magnitude. Alexafluor594-labeled JB39 was diluted into water in opaque white 96-well plates a single concentration, and varying concentrations of JB40, JB41, or JB42, spanning the pM to low μM range were added to a final total volume of 50 μL/well. 50 μL/well of 2× binding buffer containing 10⁶ RLU (relative luminescence units) beads/well was added and plates were shaken for 10 minutes at room temperature. Nanoluciferase activity and BRET were measured in a Glowmax Discover plate reader and KD values, shown in the table below, were calculated using GraphPad Prism.

FUS(1-526)[P525L]-NLUC-FLAG, sequence (P35637 whole entry P525L, one chain of several): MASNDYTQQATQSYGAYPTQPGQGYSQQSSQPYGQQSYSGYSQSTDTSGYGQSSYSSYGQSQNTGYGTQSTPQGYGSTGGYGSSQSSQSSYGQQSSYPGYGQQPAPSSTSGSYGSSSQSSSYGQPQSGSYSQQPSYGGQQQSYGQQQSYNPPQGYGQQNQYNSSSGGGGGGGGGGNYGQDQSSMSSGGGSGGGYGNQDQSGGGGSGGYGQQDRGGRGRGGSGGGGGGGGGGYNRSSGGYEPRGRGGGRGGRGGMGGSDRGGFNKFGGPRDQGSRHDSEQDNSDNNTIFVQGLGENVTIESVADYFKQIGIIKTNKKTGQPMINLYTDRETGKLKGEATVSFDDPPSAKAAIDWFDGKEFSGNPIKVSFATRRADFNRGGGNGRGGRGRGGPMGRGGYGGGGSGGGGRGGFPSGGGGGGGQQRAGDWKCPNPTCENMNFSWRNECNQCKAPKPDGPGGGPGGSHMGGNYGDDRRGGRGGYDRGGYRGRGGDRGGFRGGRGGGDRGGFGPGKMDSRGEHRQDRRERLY

Q: How did the IC50 turn out when CTGCTAGCCTCTGGATTTGA (ssDNA, full PS) [JB41 (DNA, phosphorothioate)] was run?
A: Its IC50 is 0.4 nM.

Q: How did the IC50 turn out when CUGCUAGCCUCUGGAUUUGA (ssRNA, full PS) [JB42 (RNA, phosphorothioate)] was run?
A: Its IC50 is 7.2 nM.
